This is an account of results in patent US7408027.

Test [1] deals with taxol-stabilized microtubules made from PC tubulin. The test can be described thus: microtubule pelleting assay after brain extract phosphorylation.
The target is the same in test [2]. Briefly: co-sedimentation of tau with microtubules in taxol, fitted binding curve (control curve).
For test [3] the target is unchanged. Briefly: microtubule pelleting assay, gel densitometry, fitted; 30 µM polymerized tubulin.
Test [4] has the same target. Briefly: co-sedimentation of tau with taxol-stabilized microtubules (30 µM polymerized tubulin), SDS gel densitometry, fitted binding curve.
Test [5] shares this target. The test can be described thus: co-sedimentation of tau with taxol-stabilized microtubules, SDS gel densitometry, fitted binding curve.
Test [6] has the same target. The test can be described thus: microtubule pelleting assay after MAP kinase.
For test [7] the target is unchanged. Briefly: microtubule pelleting assay after 90 min phosphorylation.
For test [8] the target is unchanged. Briefly: co-sedimentation of tau with microtubules made from 10 µM tubulin in 20 µM taxol, fitted binding curve.
For test [9] the target is unchanged. The test can be described thus: microtubule pelleting assay, microtubules from 10 µM tubulin with 20 µM taxol.
For test [10] the target is unchanged. Briefly: microtubule pelleting assay, gel densitometry, fitted.
Test [11] shares this target. Briefly: microtubule pelleting assay after 35 kDal kinase.
For test [12] the target is unchanged. The test can be described thus: microtubule pelleting assay after 35 kDal kinase, fitted.

One may read the Kd as the constant that tells how readily two partners part at equilibrium. A low value points to a tighter complex. Regarding “htau23 phosphorylated by the brain extract kinase activity (stage 2-3, up to 24 h) (from UniProt P10636 2-352)”, the difference in stoichiometry upon phosphorylation (Dn) (tau/tubulin dimer) in test [1] worked out at 0.33. In test [2], the Kd was found to be 4.9 µM and the n amounted to 0.16. Besides, in test [3], the Kd was 4.9 µM and the stoichiometry n (tau/tubulin dimer) (tau/tubulin dimer) came to 0.16. In [4], the dissociation constant (Kd) came to 4.9 µM and the n was determined as 0.16.
Take “htau40 phosphorylated with MAP kinase (from UniProt P10636 2-758)”: in test [5], the dissociation constant Kd came out at 1.9 µM and the n was determined as 0.37. Moreover, the difference in stoichiometry upon phosphorylation (Dn) (tau/tubulin dimer) in test [6] was 0.09.
In test [7], “S404-A mutant of htau34 after 90 min of phosphorylation by the brain extract kinase activity (from UniProt P10636 1-412)” came in with a fold decrease of stoichiometry against the unphosphorylated mutant of 2 fold.
In [8], “htau23 phosphorylated with GSK3 (from UniProt P10636 2-352)” displayed a dissociation constant (Kd) of 2.4 µM and a n of 0.6. Moreover, in test [9], the stoichiometry (tau per tubulin dimer) (per tubulin dimer) stood at 0.6.
Substance “htau23 mutant Ser262-Ala phosphorylated with brain extract (from UniProt P10636 1-352)” returned a difference in stoichiometry upon phosphorylation (Dn) (tau/tubulin dimer) in [1] of 0.04.
With “htau23 mutant Ser202-Ala phosphorylated with brain extract (from UniProt P10636 1-352)”, in test [3], the dissociation constant (Kd) was found to be 9.4 µM and the stoichiometry n (tau/tubulin dimer) (tau/tubulin dimer) was determined as 0.31.
For “AP18 phosphorylated with the brain extract activity (from UniProt P10636 1-352)”, the difference in stoichiometry upon phosphorylation (Dn) (tau/tubulin dimer) in test [1] was found to be 0.01. Moreover, in test [10], the dissociation constant (Kd) was 6.1 µM and the stoichiometry n (tau/tubulin dimer) (tau/tubulin dimer) turned out to be 0.48.
“htau34 phosphorylated by the brain extract kinase activity for 90 min (stage 1) (from UniProt P10636 2-412)” had a fold decrease of stoichiometry against unphosphorylated htau34 in test [7] of 3 fold.
In test [5], “htau23/A404 (Ser404 replaced by Ala), unphosphorylated (from UniProt P10636 1-758)” had an equilibrium dissociation constant (Kd) of 4.3 µM and a n of 0.54.
Take “htau23/A404 phosphorylated by the brain extract kinase activity (from UniProt P10636 1-352)”: in test [5], the Kd is 9.3 µM and the n turned out to be 0.32. In test [1], the Dn as percent of the unmutated control came to 52% and the difference in stoichiometry upon phosphorylation (Dn) (tau/tubulin dimer) came to 0.17.
In test [4], “htau34 phosphorylated by the brain extract kinase activity (stage 2-3, up to 24 h) (from UniProt P10636 2-412)” registered a Kd of 10.4 µM and a n of 0.16.
In [5], “htau40 phosphorylated by the brain extract kinase activity (from UniProt P10636 2-758)” had a Kd of 9.6 µM and a n of 0.15. The substance also gave a difference in stoichiometry upon phosphorylation (Dn) (tau/tubulin dimer) in test [1] of 0.31.
Take “human tau isoform htau40, bacterially expressed, unphosphorylated (from UniProt P10636 2-758)”: in [5], the Kd was found to be 1.1 µM and the n stood at 0.46.
“htau23 phosphorylated by the 35 kDal kinase (from UniProt P10636 2-352)” registered a reduction in stoichiometry upon phosphorylation (Dn) (tau/tubulin dimer) in [11] of 0.28. In [12], this substance yielded a Kd of 8.8 µM and a stoichiometry n (tau/tubulin dimer) (tau/tubulin dimer) of 0.21.
“human tau isoform htau34, bacterially expressed, unphosphorylated (from UniProt P10636 2-412)”: the equilibrium dissociation constant (Kd) in [10] is 1 to 2 µM; in test [4], 1.4 µM. The n in test [4] amounted to 0.43.
